Patent US10781452B2, “FLT3 receptor antagonists for the treatment or the prevention of pain disorders” (INSTITUT NATIONAL DE LA SANTE ET DE LA RECHERCHE MEDICALE …, priority 2010, dated 2020)

Experiments:
[1] = tested on: Fc fragment alone; experiment: ELISA binding to Fc fragment alone; details: antibody at 10 μg/mL
Description: The A3 antibody directed against FLT3 was produced by a phage display strategy and the antibody selection was performed by using ECD of human or mouse recombinant FLT3 produced in NSO cell line. To identify antibodies cross-reacting with both human and mouse FLT3, phages were selected by three rounds of panning, according to methods well known in the art (Philibert, P. et al. A focused antibody library for selecting scFvs expressed at high levels in the cytoplasm. BMC Biotechnol. 7, 81; 2007), first against the ECD of human FLT3, then against the ECD of mouse FLT3 and then against the ECD of human FLT3. A batch of one selected antibody named A3 was tested for its ability to bind to the ECD of human or mouse recombinant FLT3 using an ELISA technique.

[2] = target: T1, full-length mFLT3 (Mus musculus, UniProt Q00342); experiment: TR-FRET displacement of Red-FL binding, HEK cells expressing full-length mFLT3; details: HEK cells expressing full-length mFLT3, 0.5 nM Red-FL
T1 construct: host or cells: HEK293T
T1 sequence (Q00342 28-1000): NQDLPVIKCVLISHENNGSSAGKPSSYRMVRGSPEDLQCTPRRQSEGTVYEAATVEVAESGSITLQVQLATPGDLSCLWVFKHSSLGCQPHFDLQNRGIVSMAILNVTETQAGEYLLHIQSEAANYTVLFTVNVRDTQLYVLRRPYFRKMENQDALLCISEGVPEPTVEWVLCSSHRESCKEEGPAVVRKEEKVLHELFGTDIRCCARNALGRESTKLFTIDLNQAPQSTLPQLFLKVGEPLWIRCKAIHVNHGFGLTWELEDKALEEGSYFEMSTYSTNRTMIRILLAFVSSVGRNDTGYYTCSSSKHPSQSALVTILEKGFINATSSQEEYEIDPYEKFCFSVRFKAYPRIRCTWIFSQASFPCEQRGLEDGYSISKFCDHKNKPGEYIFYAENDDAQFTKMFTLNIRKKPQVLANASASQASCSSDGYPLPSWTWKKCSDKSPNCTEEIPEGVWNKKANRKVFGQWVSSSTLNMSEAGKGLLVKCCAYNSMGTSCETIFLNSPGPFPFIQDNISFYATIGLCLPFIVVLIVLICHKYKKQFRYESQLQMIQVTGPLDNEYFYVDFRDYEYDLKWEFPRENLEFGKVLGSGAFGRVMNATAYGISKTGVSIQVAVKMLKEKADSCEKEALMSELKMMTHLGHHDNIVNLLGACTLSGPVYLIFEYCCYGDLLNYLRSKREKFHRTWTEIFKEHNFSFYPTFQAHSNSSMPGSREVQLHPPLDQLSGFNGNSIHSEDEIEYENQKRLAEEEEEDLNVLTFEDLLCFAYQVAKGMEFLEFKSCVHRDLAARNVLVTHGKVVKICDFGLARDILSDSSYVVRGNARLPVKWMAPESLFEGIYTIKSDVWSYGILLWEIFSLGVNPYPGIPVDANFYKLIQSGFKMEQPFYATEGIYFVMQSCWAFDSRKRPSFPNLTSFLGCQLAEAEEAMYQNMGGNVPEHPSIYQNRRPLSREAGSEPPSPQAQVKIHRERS
Description: The binding of the A3 antibody to full-length hFLT3 and mFLT3 was measured by displacement of extracellular FL binding on recombinant HEK cells by using time-resolved fluorescence resonance energy transfer (TR-FRET).
Chemicals and reagents. The Tag-lite® labeling medium was from Cisbio Bioassays (Condolet, France). The Lumi4-Tb derivative of O6-Benzylguanine was synthesized by Cisbio Bioassays and is commercialized as SNAP-Lumi4-Tb (Cisbio Bioassays, Ref. SSNPTBE).
A recombinant rh-FLT3-L was produced as previously reported (Verstraete K, et al. Efficient production of bioactive recombinant human Flt3 ligand in E. coli. Protein J, 2009 28: 57-65) and labeled with a red fluorescent probe (Red-FL). Poly-L-ornithine (MW of 30,000-70,000 daltons) was from Sigma-Aldrich. The plasmids encoding for the SNAP tagged human FLT3 (pSNAP-hFLT3) or the mouse FLT3 (pSNAP-mFLT3) used for transient transfection was obtained from Cisbio Bioassays. Monoclonal antibodies against FLT3 (8F2) and phosphotyrosine FLT3 (PY969) were purchased from Cell Signaling Technology and labeled with Lumi4-Tb and d2 respectively, by Cisbio.
Cell culture. HEK293T cells, used for binding assays, were maintained in DMEM Glutamax (Invitrogen) supplemented with antibiotics (penicillin 50 U/ml, streptomycin 50 μg/ml) and 10% heat-inactivated Fetal Calf Serum.
Transfection procedures. […]

B1: A3 antibody: human monoclonal antibody against FLT3; VH SEQ ID NO:1, VL SEQ ID NO:2 (antibody, V domains shown)
VH: EVQLVESGGSLVKPGGSLRLSCAASGFTFSNSYMNWVRQAPGKGLEWISDISGSSRDIDYADFVKGRFTISRDNATNSLYLQMNSLRAEDTAVYYCVRSGNSGMDVWGRGTLVTVSS
VL: QSVLTQPASVSGSPGQSITISCAGTSSDVGGGYYVSWYQQHPGKAPKLMIYYDSYRPSGVSNRFSGSKSGNTASLTISGLQAEDEADYYCSSYTNNSTRVFGGGTKLEIK
modifications: Synthetic VH domain of A3; Synthetic VL region of A3
ELISA immunoreactivity against Fc fragment alone [1]: not against the Fc fragment alone | IC50, displacement of FL binding [2]: about 17 μg/ml
